# Experimental data published in IntAct's records for PubMed 22575647.
# B1: Nuclear receptor subfamily 0 group B member 2 (Homo sapiens), Q15466 (parent)
# chain: MSTSQPGACPCQGAASRPAILYALLSSSLKAVPRPRSRCLCRQHRPVQLCAPHRTCREALDVLAKTVAFLRNLPSFWQLPPQDQRRLLQGCWGPLFLLGLAQDAVTFEVAEAPVPSILKKILLEEPSSSGGSGQLPDRPQPSLAAVQWLQCCLESFWSLELSPKEYACLKGTILFNPDVPGLQAASHIGHLQQEAHWVLCEVLEPWCPAAQGRLTRVLLTASTLKSIPTSLLGDLFFRPIIGDVDIAGLLGDMLLLR
# Variants of: B1
# Settings: with mdm2_human MDM2, Q00987
# Chain of mdm2_human MDM2, Q00987 (Q00987 whole entry, looked up): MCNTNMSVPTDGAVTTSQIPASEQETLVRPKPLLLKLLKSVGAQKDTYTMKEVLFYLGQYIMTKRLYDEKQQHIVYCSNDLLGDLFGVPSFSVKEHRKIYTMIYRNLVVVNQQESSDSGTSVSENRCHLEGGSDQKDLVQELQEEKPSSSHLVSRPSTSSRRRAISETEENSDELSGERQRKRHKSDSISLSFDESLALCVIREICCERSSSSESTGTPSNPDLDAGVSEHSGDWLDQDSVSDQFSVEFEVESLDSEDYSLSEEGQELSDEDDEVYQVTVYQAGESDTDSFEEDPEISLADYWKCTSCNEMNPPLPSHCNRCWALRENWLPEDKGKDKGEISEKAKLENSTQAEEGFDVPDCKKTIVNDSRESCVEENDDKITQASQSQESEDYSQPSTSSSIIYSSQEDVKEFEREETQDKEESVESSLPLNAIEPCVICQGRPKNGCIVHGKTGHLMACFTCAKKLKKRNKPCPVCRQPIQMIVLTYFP
row,effect of a mutation on the interaction,Variant
1,disrupting interaction,MSTSQPGACPCQGAASRPAILYALLSSSLKAVPRPRSRCLCRQHRPVQLCAPHRTCREALDVLAKTVAFLRNLPSFWQLPPQDQRRLLQGCWGPLFLLGLAQDAVTFEVAEAPVPSILKKILLEEPSSSGGSGQLPDRPQPSLAAVQWLQCCLESFWSLELSPKEYACLRGTILFNPDVPGLQAASHIGHLQQEAHWVLCEVLEPWCPAAQGRLTRVLLTASTLKSIPTSLLGDLFFRPIIGDVDIAGLLGDMLLLR [K170R]

# Variants of: B1
# Settings: with mdm2_human MDM2, Q00987
# Remark: another data set of the same source
row,effect of a mutation on the interaction,Variant
1,increasing interaction,MSTSQPGACPCQGAASRPAILYALLSSSLKAVPRPRSRCLCRQHRPVQLCAPHRTCREALDVLAKTVAFLRNLPSFWQLPPQDQRRLLQGCWGPLFLLGLAQDAVTFEVAEAPVPSILKKILLEEPSSSGGSGQLPDRPQPSLAAVQWLQCCLESFWSLELSPKEYACLNGTILFNPDVPGLQAASHIGHLQQEAHWVLCEVLEPWCPAAQGRLTRVLLTASTLKSIPTSLLGDLFFRPIIGDVDIAGLLGDMLLLR [K170N]
